Laboratory results reported in US20130336973A1.
Several values for one entry are separate records, joined by “and”; a condition that tells them apart may be missing. Identical values can stand only once.

Tests used:
[1] = target: FcγRIIIA (CD16a), F158 allotype (UniProt P08637); experiment: SPR
[2] = target: FcγRIIB (CD32b), Y163 allotype (UniProt P31994); experiment: SPR
[3] = target: neonatal Fc receptor (FcRn) (UniProt P55899); experiment: SPR, Ab captured on goat anti-human IgG, FcRn flowed, pH 6.0

Chain of FcγRIIB (CD32b), Y163 allotype (P31994 43-217 limits assumed): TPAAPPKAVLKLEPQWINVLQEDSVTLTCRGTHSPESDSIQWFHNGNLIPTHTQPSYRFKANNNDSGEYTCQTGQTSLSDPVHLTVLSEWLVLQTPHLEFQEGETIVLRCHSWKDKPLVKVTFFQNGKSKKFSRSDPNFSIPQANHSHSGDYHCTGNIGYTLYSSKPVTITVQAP
Chain of FcγRIIIA (CD16a), F158 allotype (P08637 17-208 limits assumed): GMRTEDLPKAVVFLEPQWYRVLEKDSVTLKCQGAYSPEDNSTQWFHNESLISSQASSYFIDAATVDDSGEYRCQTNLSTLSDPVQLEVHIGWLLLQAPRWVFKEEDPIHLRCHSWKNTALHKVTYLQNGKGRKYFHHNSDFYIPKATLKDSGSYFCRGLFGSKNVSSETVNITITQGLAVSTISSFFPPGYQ

Kd [1]	Kd [2] [nM]	Kd [3] [nM]	Substance
–	890	–	T350V_L351Y_S400R_F405A_Y407V / T350V_T366L_K392M_T394W (antibody)
510 nM	1200	–	D399C_F405A_Y407V / T366L_K392C_T394W (antibody)
460 nM	–	4100	Y349C_T350V_F405A_Y407V / T350V_S354C_T366L_K392M_T394W (antibody)
420 nM	–	5000	L351Y_F405A_Y407V / T366L_K392M_T394W (antibody)
–	1700	3700	Herceptin WT (antibody)
460 nM	–	–	F405A_Y407V / T366L_K392M_T394W (antibody)
420 nM	920	–	Q347R_T350V_L351Y_S400E_F405A_Y407V / T350V_K360E_T366L_N390R_K392M_T394W (antibody)
420 nM	830	–	T350V_L351Y_S400E_F405S_Y407V / T350V_T366L_N390R_K392M_T394W (antibody)
–	710	–	T350V_L351Y_S400E_F405A_Y407V / T350V_T366L_N390R_K392F_T394W (antibody)
–	940	–	T350V_L351Y_S400R_F405A_Y407V / T350V_T366L_N390D_K392M_T394W (antibody)
–	1000	–	T350V_F405A_Y407V / T350V_T366L_K392M_T394W (antibody)
–	670	–	T350V_L351Y_S400E_F405T_Y407V / T350V_T366L_N390R_K392M_T394W (antibody)
450 nM and 420 nM	900	5000	T350V_L351Y_S400E_F405A_Y407V / T350V_T366L_N390R_K392M_T394W (antibody)
630 nM	–	–	Y349C_D399C_F405A_Y407V / S354C_T366L_K392C_T394W (antibody)

The remaining lines, values behind:

Substance	Kd [1]	Kd [2] [nM]	Kd [3] [nM]
F405A_Y407V / T366L_T394W (antibody)	480 nM	–	–
T350V_S400E_F405A_Y407V / T350V_T366L_N390R_K392M_T394W (antibody)	450 nM	1000	–
Y349C_T350V_L351Y_S400E_F405A_Y407V / T350V_S354C_T366L_N390R_K392M_T394W (antibody)	420 nM	950	–
T350V_L351Y_S400E_F405A_Y407V / T350V_L351Y_T366L_N390R_K392M_T394W (antibody)	–	710	–
Y349C_F405A_Y407V / S354C_T366L_T394W (antibody)	580 nM	1200	–
T350V_L351Y_S400E_F405A_Y407V / T350V_T366L_N390R_K392L_T394W (antibody)	–	910	–
T350V_L351Y_S400R_F405A_Y407V / T350V_T366L_N390E_K392M_T394W (antibody)	420 nM	890	–
T350V_L351Y_F405A_Y407V / T350V_T366L_K392M_T394W (antibody)	460 nM	1200	4300
T350V_L351Y_F405A_Y407V / T350V_T366L_K392L_T394W (antibody)	–	990	3900
